In patent publication US20210253718A1, “FRIZZLED5 PROTEIN-BINDING AGENTS” (Modmab Therapeutics Corporation, priority 2016, published 2021):
One block for each binder: values may come before it.

Biological target: T1, FZD8 cysteine-rich domain (CRD), MYC-tagged and GPI-anchored on CHO cells (human)
T1 sequence (chain, GPI anchor): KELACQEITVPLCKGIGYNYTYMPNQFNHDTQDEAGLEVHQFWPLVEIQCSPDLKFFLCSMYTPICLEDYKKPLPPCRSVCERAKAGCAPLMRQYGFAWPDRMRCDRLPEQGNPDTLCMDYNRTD
Experiment: flow cytometry, CHO-CRD cells

median fluorescence: 8.17
B1: Fab-2905 (Fab, V domains shown)
VH: EVQLVESGGGLVQPGGSLRLSCAASGFNLSYYYMHWVRQAPGKGLEWVASIYSSYSYTSYADSVKGRFTISADTSKNTAYLQMNSLRAEDTAVYYCARSGYALDYWGQGTLVTVSS
VL: DIQMTQSPSSLSASVGDRVTITCRASQSVSSAVAWYQQKPGKAPKLLIYSASSLYSGVPSRFSGSRSGTDFTLTISSLQPEDFATYYCQQSSWYYGYPFTFGQGTKVEIK

median fluorescence: 7.7
B2: Fab-2925 (Fab, V domains shown)
VH: EVQLVESGGGLVQPGGSLRLSCAASGFNLSYSSMHWVRQAPGKGLEWVASIYPSYGSTYYADSVKGRFTISADTSKNTAYLQMNSLRAEDTAVYYCARYGYFGLDYWGQGTLVTVSS
VL: DIQMTQSPSSLSASVGDRVTITCRASQSVSSAVAWYQQKPGKAPKLLIYSASSLYSGVPSRFSGSRSGTDFTLTISSLQPEDFATYYCQQAWVYASLFTFGQGTKVEIK
